# T1: HPV 16 E7 derived synthetic 13mer peptide 43 (amino acids 85 to 97) (human papillomavirus type 16)
# T1 construct: Immobilised on a peptide microarray
# T1 peptide: GTLGIVCPICSQK
# T2: HPV 16 E7 derived synthetic 13mer peptide 44 (amino acids 86 to 98) (human papillomavirus type 16)
# T2 construct: Immobilised on a peptide microarray
# T2 peptide: TLGIVCPICSQKP
# T3: HPV 11 E7 protein (human papillomavirus type 11, UniProt P04020 1-98)
# T3 construct: also called low-risk HPV type 11 E7
# T3 sequence: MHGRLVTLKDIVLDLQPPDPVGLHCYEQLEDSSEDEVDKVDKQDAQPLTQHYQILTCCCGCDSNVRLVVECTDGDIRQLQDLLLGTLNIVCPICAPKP
# T4: HPV 18 E7 protein (human papillomavirus type 18, UniProt P06788 1-105)
# T4 construct: also called E7 protein of HPV 18
# T4 sequence: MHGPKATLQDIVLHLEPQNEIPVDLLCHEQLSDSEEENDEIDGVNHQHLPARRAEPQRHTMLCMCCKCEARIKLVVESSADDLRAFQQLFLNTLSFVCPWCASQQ
# T5: HPV 45 E7 protein (human papillomavirus type 45, UniProt P21736 1-106)
# T5 construct: also called E7 protein of HPV 45
# T5 sequence: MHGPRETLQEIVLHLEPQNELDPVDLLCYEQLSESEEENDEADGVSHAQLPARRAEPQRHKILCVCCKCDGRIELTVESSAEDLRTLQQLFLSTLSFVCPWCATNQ
# T6: HPV 16 E7 mutant C58G (human papillomavirus type 16, UniProt P03129 1-98)
# T6 sequence: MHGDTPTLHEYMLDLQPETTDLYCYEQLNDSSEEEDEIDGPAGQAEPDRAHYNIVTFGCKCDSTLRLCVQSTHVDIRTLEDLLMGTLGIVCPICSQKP
# T7: HPV 16 E7 mutant C91G (human papillomavirus type 16, UniProt P03129 1-98)
# T7 sequence: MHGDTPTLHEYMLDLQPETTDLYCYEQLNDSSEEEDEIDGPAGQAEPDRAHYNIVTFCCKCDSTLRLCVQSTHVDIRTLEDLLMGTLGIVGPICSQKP
# T8: HPV 16 E7 mutant C58G/C91G (human papillomavirus type 16, UniProt P03129 1-98)
# T8 sequence: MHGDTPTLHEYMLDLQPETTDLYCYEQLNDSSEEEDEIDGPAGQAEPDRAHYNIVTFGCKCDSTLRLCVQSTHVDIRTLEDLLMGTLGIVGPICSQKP
# B1: monoclonal anti-HPV 16 E7 antibody of the present invention (rabbit monoclonal, hybridoma Klon 42-3-78, DSM ACC3034) (antibody, V domains shown)
# VH: QSLEESGGRLVTPGGSLTLTCTVSGIDLSTYEISWVRQAPGKGLEWIGIIGTSANTVYASWAKGRFTISKSSTTVDLRVTSLTTEDTATYFCARAYDEYGIHAFHPWGPGTLVTVSS
# VL: AQVLTQTPSPVSAAVGGTVTINCQASQSVYNAKNLAWYQQKPGQPPKLLIYQASTLASGVPSRFKGSGSGTQFTLTISGVQCDDAATYYCQGEFSCSSADCNVFGGGTEVVVKG
# notes: Rabbit IgG purified from hybridoma supernatant on Protein G; used plain or biotinylated; also called monoclonal antibody against HPV 16 E7; RabMab
# Legend:
# [1] = target: T1, HPV 16 E7 derived synthetic 13mer …; test: peptide microarray, anti-rabbit-Cy5
# Description: (§1) HPV 16 E7 epitopes were analyzed by JPT Peptide Technologies GmbH (Berlin, Germany) using peptide microarrays. […] The determination of peptide-antibody binding was performed by RepliTope-analysis where the peptide microarray was incubated with the primary antibody followed by a fluorescently labelled secondary antibody (anti-rabbit-Cy5). After washing the peptide microarrays were dried using a microarray centrifuge and scanned in a high resolution microarray scanning system with appropriate wavelength settings.
# [2] = target: T2, HPV 16 E7 derived synthetic 13mer …; test: peptide microarray, anti-rabbit-Cy5
# Description: as §1
# HPV 11 E7 protein = target: T3, HPV 11 E7 protein; test: direct ELISA, coated recombinant E7, biotinylated antibody
# HPV 18 E7 protein = target: T4, HPV 18 E7 protein; test: confocal immunofluorescence on U-2OS cells overexpressing E7
# HPV 45 E7 protein = target: T5, HPV 45 E7 protein; test: as above
# HPV 16 E7 mutant C58G = target: T6, HPV 16 E7 mutant C58G; test: indirect immunofluorescence on transiently transfected U-2OS cells
# HPV 16 E7 mutant C91G = target: T7, HPV 16 E7 mutant C91G; test: as above
# [3] = target: T8, HPV 16 E7 mutant C58G/C91G; test: as above
binder,measurement,setting,value
B1,binding result,[1],binds
same,binding result,[2],binds
same,binding result,HPV 11 E7 protein,no binding (tested: 2.5 and 10 ng coated E7 protein)
same,binding result,HPV 18 E7 protein,no binding (tested: 25 µg/ml)
same,binding result,HPV 45 E7 protein,no binding (tested: 25 µg/ml)
same,binding result,HPV 16 E7 mutant C58G,no binding
same,binding result,HPV 16 E7 mutant C91G,no binding
same,binding result,[3],no binding

# — US20160237143A1 (OSTERREICHISCHE AKADEMIE DER WISSENSCHAFTEN, published 2016)
